Reference: the nanobody polyreactivity screen of Harvey et al. (2022)

Assay: yeast display, Sf9 membrane polyspecificity reagent, FACS + sequencing; frameworks hold sequencing errors
Method in brief: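 After 36–48 hours of galactose induction, yeast (Saccharomyces cerevisiae BJ5465) displaying a synthetic nanobody library were stained at 4 °C for 1 hour with 10% biotinylated, detergent-solubilized Sf9 membrane reagent. Streptavidin microbeads enriched the stained cells before FACS sorting into low and high (top ~1%) gates on anti-HA and streptavidin fluorescence. Each clone's polyreactivity label reflects its gate of origin.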

Sequence | polyreactivity (PSR sort gate)
QDQLVESGGGLVQAGGSLRLSCDASGSIIQSYTMGWYRQAPGKERELVAAIDSGGSTYYADSVKGRFTISRDNAKNTVYLQMNSLKPEDTAVYYCAAEPDTYWYTYDYWGQGTQVTVSS | low polyreactivity
QDQLVESGGGLVQAGGSLRLSCDASGYIFQSNVLGWYRQAPGKERELVAAITVSGGSTYYADSVKGRFTISRDNAKNTVYLQMNSLKPEDTAVYYCAALVAHKGDYWGQGTQVTVSS | high polyreactivity
QDQLVESGGGLVQAGGSLRLSCSASGSIFRDKAMGWYRQAPGKERELVAAISIVGSTSYADSVKGRFTISRDNAKNTVYLQMNSLKPEDTAVYYCAADTFYSYYDMDYWGQGTQVTVSS | low polyreactivity
QDQLVESGGGLVQAGGSLRLSFAASGLTFRYYAMGWYRQAPGKERELVAAISSGGRTDYADSVKGRFTISRDNAKNTVYLQMNSLKPEDTAVYYCNARGRIRSYRQVRTYSAYNYWGQGTQVTVSS | high polyreactivity
QDQLVESGGGLVQAGGSLRLSFAASGNIFRYYAMGWYRQAPGKERELVAAISRSGGNTYYADSVKGRFTISRDNAKNTVYLQMNSLKTEDTAVYYCAVVLSTYSYADYDYWGQGTQVTLSS | high polyreactivity
QDQLVESGGGLVQAGGSLRLSGAASGRIFRTNAMGWSRQAPGKERELVAAISDSGADTSYADSVKGRFTISRDNAKQSVYLQMNSLKPEDTAVYYCNRGRVSYRYLKDYDYWGQGTQVTVSS | low polyreactivity
QDQLVESGGGLVQAGGSLRLSGAASGSTFGGNAMGWYRQAPGKERELVAAISSSGGSTYYADSVKGRFTISRDNAKYSVYLQMNRLKPEDTAVYYCAAMYHWTYDYWGQGTQVTVSS | low polyreactivity
QDQLVESGGGLVQAGGSLRLSSAASGRTFCYNTKGWYRQSPGKERELLAAINYSGGSTYYADSVKGRFTISRDNAKNTVYLQMNSLKPEDTAVYYWNAKPRWYVPYDYWGQGTQVNVSS | high polyreactivity
QDQLVESGGGLVQAGGSLRLTCAASGSTFNYYAMGWYRQAPGKERELVAAISRSGGRTYYADSVKGRFTISRDNAKTTVYLQMNSLKEEDTAVYYCAAQVLTTGGEGGYWGQGTQVTVSS | high polyreactivity
QDQLVESGGGLVQAGGSLSLICDASGRTFSTKFMGWYIQAAGKERQLVAAITTSSSRTYYADSVKGRFTISRDNANHTVYLLMNSLKPEDTAVYYCAARIHGSWSFDYWGQGTQVTLSS | low polyreactivity
QDQLVESGGGLVQAGGSLSLSCAASGRNFFHNAMGWYRQAPGKERELVASITSGDGTYYADSVKGRFTISRDNAKNTVYLQMNSMKPEDTEVYSCAAEPGSIAYYYTRVGLYYWGQGTQVTVSS | low polyreactivity
QDQLVESGGGLVQAGGSLSLSCAASGRTFTVYAMGWYRQAPGKERELVAAISGSSGSTDYADSVKGRFTISRDNAKNTVYLQMNSLKPEDTAVYYCAKASSATRYVQLRQDYDYWGQGTQVTVSS | low polyreactivity
QDQLVESGGGLVQAGGSLSLSCAASGSTFLTNAMGWYRQAPGKERELVAAISRRGGNTYYADSVKGRFTISRDNAKNTVYLQMNSMNPEDTAVYYCNAVTPTTLGDYWGQGTQVTVSS | high polyreactivity
QDQLVESGGGLVQAGGTLRLSGAASGRTFDRNAMGWYRQAPGKAWEVVAGITRSGDSTYADSVKGRFTISRDNAKNTVYLQMNSLKPEDTAVYYCNKEGTVGGTRGYWGQGTQVTVSS | low polyreactivity
QDQLVESGGGLVQAGVSLLLICAASGSTSSVYAMGWYRQAPGKERELVAAIRWSTGSTYYADSVKGLFTISRDNAKNTVYLHMNCLKPEETALYYCAAEVYTSVHIYSWYYYWGQGTKVTVSS | high polyreactivity
QDQLVESGGGLVQAGVSLRLICPASGLTFYTYAMGSYRQAPGKERELVAAIRRRGGRTYYADSVKGRFTISRDNAKNTVFLQMNSLKPEDTAVYYCAADYSTLFKYDYWGQGTQVTVSS | low polyreactivity
QDQLVESGGGLVQARGSLRLSCAASGSIFVHNAMGWYRQAPGKEREFVAAITWSGGSTYYADSVKGRFTISRDYAKNTVYLQMNSLKPEDTAVSYCAAEDVAAQWAYESPTSYWYYYWGQGTQVTVSS | low polyreactivity
QDQLVESGGGLVQARGSLRLSCASSGSTFDTNTMGWYRQAPGKERELVASNSRGTSTKYADSVKGRFTISRDNAKNTVYLQMNSLKPEDTAVYYCNAVSRDKSLYDYWGQGTQVTVSS | high polyreactivity
QDQLVESGGGLVQARVSLRLSCAASGLIFRRYAMGWYRQAPGKEREFVAAITVSGGRTYYADSVKGRFTISRDNAKNTVYLQMNSLKQEDTAVYYCDAHGYGDNRNKYFYWGLGTQVTVSS | high polyreactivity
QDQLVESGGGLVQAVGSLRLSCAASGSTFWSYAMGWYRQAPGKERELVAAITDSGGSTYYADSVKGRFTISRDNAKNTVYLQMNSLKPEDTAVYYCAVDSRYTPPLRPLGPFDYWGQGTQVTVSS | low polyreactivity
QDQLVESGGGLVQSGGSLLLSCAPSGSMFSFYAMGCYRQAPGKEMELVAAITRGGATTNFADSVKGRFTISRDNAKNTVYLQMNSLKPEDTAVYYCAARTPNVNAVWMDYWGQGTQVTVSS | high polyreactivity
QDQLVESGGRLVQAGGSLRLSCAASGITFSRYAMGWYRQAPGKEWELVAAISCSGARTYYADSVKGRFTISRDNAKNTVYLQMNSLKPEDTAVYYCDRFLRNFKTYDYWGQGTQLTVSS | high polyreactivity

Sequence | polyreactivity (PSR sort gate)
QDQLVESGGRLVQAGGSLRLSCAASGRTVYYYTMGWYRQAPGKEREFVAGIRYSGSSTYYADSVKGRFTISRDTAKNTVSFQMNSLKPEATAVYYCAASLWRWRFSRFGYWGQGTQVTVSS | high polyreactivity
QDQLVESGRGLDQAGGSLRLICAASGRIFDRYALGWYRQAPGTERELVAAISWNTGSTYYADSVKGRFTISRDNAKNTVYLQMNSLKPEDTAVYYCAAAVRPYKRQDDYWGQGTQVTVSS | high polyreactivity
QDQLVESGVGLVQAGVSLRLSCAASGSIFESYAMGWSSQAPGKESELVAAIDYDDGSTYYADSVKGRFTISRDNAKNTVYLQMNSLKPEDTAVYYCAAKPTTYYGISDYWGQGTQVTVAS | high polyreactivity
QDQLVESRGGLVQAGGSLRLSCAASGLIFPVYAMGWYRQAPRKEREFVASIWRGGTTYYADSVKGRFTISRDNAKNTVYLQMISLKPEDTAVYYCAAVVYSRGYYWGQGTQVTVSS | high polyreactivity
QDQLVESRGGLVQAGGSLRLSCAASGSTFVNNAMGWYRQAPGKERELVAAIRSSDGRTYYADSVKGRFTISRDNAKNTVYLQMNSLKPEDSAVYYCATAVGTKYRTRIFEFYYWGQGTQVTVSS | high polyreactivity
QDQLVESRGGLVQAGRSLRISCAASGFIFYNYGMGWYRQAPGKEREFVAAITKRGGRTYYADSVKGRFTISRDYAKNTVYLQMTSLKPEDTAVYYCNKAIRQDRWVQEEDYWGQGTQVTVSS | high polyreactivity
QDQLVESRGGLVQAGVSLRLSCAASGIIFAENAMGWYRQAPGKERELVAAITWNGGRTYYADSVKGRFTISRDNAKNTVYLQMNSLKPEDTAVYYCNAVTVYYRIYEYWGQGTQVNVSS | high polyreactivity
QDQLVESRGVLVQAGGTLRLSCAASGSTFVYYVMGWYRQAPVKERELVAAISWSDDSTYYADSVKGRFTISRDNAKNTVYLQMNSLIPVDTAVYYCAATGYPFYTSGDIEYYYWGQGTQVTVSS | low polyreactivity
QDQLVESVGCLVQAGGSLRLSCAATGRIFQSYAMGWYRQAPGKERELVAGIRAGGGRTYYADSVKGRFTISRDIAKNTVYVQMNSLKPEDTAVDYCAARFVGSFYAPFDYWGQGTLVTVSS | low polyreactivity
QDQLVESVGGLVQAGGSLRLSCAASGITFRYYTMGWYRQAPGKESELVAVISWSGGSTYYADSVKGRFTISRDNAKNTVYLQMNSLKPEDTAVYYCAAVRRISRYDYWGQGTQVTVSS | high polyreactivity
QDQLVESVGGLVQAGGSLRLSCAASGTISYAGPMGWYRKAPGKEREFVAGIGVCSNTNYADSVKGRYTIIRDNAKNTVYLQMNSLIPEDTAVYYCAVGGYAPLGRPYWGQGTQVTVSS | low polyreactivity
QDQLVESVGGVVQAGGSLRLSGAASGIIFVAYAMGWYRQAPGKERELVASITYSGGSTNYADSVKGRFTISRDNAKNTVYLQLNSLQPEETAVDYCARDRDPVYASVLWDDYGYWGQGTQVTVSS | low polyreactivity
QDQLVETGGGLVQAGGSLRLSCAAYGSIFDLNAMGWYRQAPGKESELVAAITYSSGRTYYADSVKGRFTISRDNAKNTVYLQMNSLKPEDTAVYYCNADLWFHYYRYNYWGQGTQVTVSS | high polyreactivity
QEQLEESGGGLVQAGGRLRLSCAASGSIFTTYTMGWYRQAPGKERELVAAIDYSGDSTYYADSGKGRFTISRDTAKNTVYLQMNSLKPEDTAVYYCNAVSFSAYVPYGYWGQGTQVTVSS | low polyreactivity
QEQLEESGGGLVQAGGRLRLSCAASGSTFGINARGWYRQAPGKEREVVASITRRGGSTYYADSVKGRFTISRDNAKNTVYLQMNSLKPEDTAVYYCNKTYRYGTPLYYYWGQGTQVTVSS | high polyreactivity
QEQLHESGGGLVQAGGSLRLSCAASRTISVTYNMGWYRQATGKEREFVAGNSTGDTTNYADSVKGRFTISRDNAKNTVYLQMNSLKPEDTAVNYCSAHIYRQDHFYYWGQGTQVTVSS | low polyreactivity
QEQLQERGGGLVQAGGSLRLSCAASGNISVTGFMGWYRQAPGKERELVASIGIGGTTYYADSVKGRFSMSRDNAKNTVYLKMNRLKPEDTAVYYCAVRWYDHVSRRGIGYYWGKGTQVTVSS | low polyreactivity
QEQLQESGDGLVQAGGSLRLSSAASGTIFSDYGMGGYRQAPGKERELLAGISDGCNTNYTDSVKGRFTISRDNAHRVSADEQPETGGYRGVLLRGSERWLLFYVYWGQGTQGTVSS | high polyreactivity
QEQLQESGGGLVQAGCSLRLSCAANGYIFSVEDMGRYCLAPGKEREFVATINYDTSTYYADSVKGSFTISRDNAKKTVYLQMNSLKPEDTEVYYCEAYFYAYRSPGYWGQGTQVTVSS | high polyreactivity
QEQLQESGGGLVQAGGSLRLSCAAIGSNIPTIYMGWYRHAPGKEREFVAAIGKGCSTYYADSVKGRFTISRDNALKTVYLQMNSLIPEDNAVYYCAFDPYASQDLAYWGQGTLVTVSS | low polyreactivity
QEQLQESGGGLVQAGGSLRLSCAASGIIFDWFFMGWYRQAPGREREFVAAITYGATTNYADSVKGRFTISRDNGKNTVYLQMNSLKPEDSAVYYCAAQHRGVQVTFGEYDYWGQGTQVTVSS | low polyreactivity
